The supplement of paper PMC9170038

Tested on: MS2 coat protein
Assay: apparent KD of MS2 coat protein; designed switch direction (-1 OFF switch, 1 ON switch): -1; higher = weaker reporter binding
In short: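 Designed RNA switches sharing common flanks were transcribed on Illumina chips by stalled E. coli RNA polymerase. They were titrated with SNAP-549-labelled MS2 coat protein, from 0.7 or 1.5 nM doubling to 3 µM, in Tris-HCl pH 7.5 buffer with KCl, MgCl2, BSA, DTT, tRNA and Tween-20. Titrations ran without input, with 200 uM small-molecule ligand, or with an oligonucleotide input. The apparent KD of each design is the median over its clusters, after curve-fitting of normalised cluster fluorescence.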

[1] = Eterna round: R95, input ligand: FMN 200 uM
[2] = Eterna round: R95, input ligand: microRNA oligo, concentration not stated
[3] = Eterna round: R95, input ligand: none
[4] = input ligand: microRNA oligo, concentration not stated

| Sequence | apparent KD of MS2 coat protein (input ligand: FMN 200 uM) [µM] | apparent KD of MS2 coat protein (input ligand: none) [µM] | apparent KD of MS2 coat protein [1] [µM] | apparent KD of MS2 coat protein [2] [µM] | apparent KD of MS2 coat protein [3] [µM] | apparent KD of MS2 coat protein [4] [µM] |
| --- | --- | --- | --- | --- | --- | --- |
| UCGUGUUUAGAGGAUAUAUUAAUAUUUUAAACAAUAGAAGGCUAAACAUGAGGAUCACCCAUGUAUUUGGUUUU [JR_Ex6_Sub055] (Eterna round: R97, puzzle: Exclusion 6) | 0.0466 | 0.233 | – | – | – | – |
| UGAGAACAUGAGGAUCACCCAUGUAAGGAUAUGCGAAGAGUUCGGAGAGGUUGAGGAGGCAGAAGGUACGGGAG [JR_Exclu1_Sub044] (puzzle: Exclusion 1) | – | – | 0.0375 | 0.0325 | 0.0498 | – |
| GUGAAACAUGAGGAUCACCCAUGUGAGGAUAUGUUUAAGUAAUGAUGAAAGUAUAUAUACAGAAGGCACAAUGG [Mat - Mod of JL D72] (puzzle: Exclusion 1) | – | – | 0.142 | 0.0715 | 0.0644 | – |
| UAUGUUGUUGUGAGGAUAUACUUAGUUUGACCGUAGUAGAAGGCACAUGAGGAUCACCCAUGUAGAUGUUUGGU [JR_BME4_Sub005] (puzzle: Brourd's mod of Exclusion 4) | – | – | – | 0.0149 | – | – |
| CGCAAAAGAGGAUAUACAUGAGGAUCACCCAUGUUUUCUCUUCAUAACGGAAACUCGUGUAGAAGGCUUGUGCG [EX3 C.18] (Eterna round: R97, puzzle: Exclusion 3) | 0.0944 | 0.103 | – | – | – | – |
| UAUGGUUAAGUCAGGAUAUACGUGCAGUUUUCUGGGUAGAAGGGACAUGAGGAUCACCCAUGUAUGGUAGUGUU [Ex4 #49] (Eterna round: R97, puzzle: Brourd's mod of Exclusion 4) | 0.188 | 0.149 | – | – | – | – |
| CCUCUACAUGAGGAUCACCCAUGUCAGGAUAUCGUGUGUUUUUUUUCGGCCGCGCGUGCGAGAAGGGACGUCUU (puzzle: Exclusion 1) | – | – | – | 0.0301 | – | – |
| CGUGGACAUAACAAGCUUUACAUGAGGAUCACCCAUGUGAUCAUGCUCGUCUUAUGGUCCACGAAUUAAUUAAUUAA [Stov1/6-C1] (Eterna round: R97, puzzle: Sensor, turn-off variant 1) | 0.0195 | 0.0199 | – | – | – | – |
| AGCCCUGCAGGAUAUGCCCGGGAUAACAUGAGGAUCACCCAUGUGACUGAUUGUUAUUCUGCAGAAGGGCAUGGGA [JL-EX5-4.14 ViennaUCT mod] (Eterna round: R97, puzzle: Exclusion 5) | 0.335 | 0.494 | – | – | – | – |
| UAAGAAUACUGAGGAUAUGCUAGUUUAUCUCAGGCAGAAGGCGGACUCAACAUGAGGAUCACCCAUGUAAGACGGGUACUAGAU [Ex NG1 #14] (Eterna round: R96, puzzle: Exclusion NG 1) | 0.131 | 0.089 | – | – | – | 0.0922 |
| UCGGCGCGAGGAUAUACGUUUGCUCUUUUUCGUUUUUGUGUACAUGAGGAUCACCCAUGUAGAAGGCGCGCCGC [Apr-15 SS2-19] (puzzle: Exclusion 2) | – | – | – | 0.017 | – | – |
| AGAUGCUUAAGUCGACAUGAGGAUCACCCAUGUACAGUUAACGAGGAUAUCCGAAAUAAAUAAUAGGAGAAGGCGUGAUCAUGA [Ex NG3 #1] (Eterna round: R96, puzzle: Exclusion NG 3) | 0.0824 | 0.307 | – | – | – | 0.145 |
| CUGAGGUAGCGGUCCUAUGACAUGAGGAUCACCCAUGUACCUUGCUUUGAGCUUUAUGCUCGUCUUAUGAUUCUCGG [Mat - Sensor v3 - turn-off var 1 - JL Mod - D42] (puzzle: Sensor v3, turn-off variant 1) | – | – | 0.585 | 0.537 | 0.546 | – |
| CGUCCUCUAGUCAGGAUAUUGUCUCGGAUACGAAACAAGAAGGGACAUGAGGAUCACCCAUGUAAUGAGGACGA [Malc #30 mod 15] (puzzle: Brourd's mod of Exclusion 4) | – | – | 0.0201 | 0.0331 | 0.0338 | – |
| UAUAAAACAUAGGAUAUCGAAUUAAUCAUUUAACGAGAAGGAUGAACAUGAGGAUCACCCAUGUGGUAUCAUGG [Mat - Exclusion 6 - JL Mod - D9] (puzzle: Exclusion 6) | – | – | 0.333 | 0.0615 | 0.129 | – |
| GCGCCAUCGUGAGAUGGCGUAAGUACAUGAGGAUCACCCAUGUAGGAUAUCGAUUGCUUUGCAGUCGAGAAGGGCGUGAUAAGU [JL ENG3 3.81] (Eterna round: R96, puzzle: Exclusion NG 3) | 0.0973 | 0.0769 | – | – | – | 0.0641 |

| Sequence | apparent KD of MS2 coat protein (input ligand: FMN 200 uM) [µM] | apparent KD of MS2 coat protein (input ligand: none) [µM] | apparent KD of MS2 coat protein [1] [µM] | apparent KD of MS2 coat protein [2] [µM] | apparent KD of MS2 coat protein [3] [µM] | apparent KD of MS2 coat protein [4] [µM] |
| --- | --- | --- | --- | --- | --- | --- |
| UUUUUCAGGCCAGAUCCUCACAUGAGGAUCACCCAUGUGCUCGUCUGUUUUCGCACUAUCUUUUUUUUGAUAGUGCU [Level Boss var2-13] (puzzle: Sensor v3, turn-off variant 1) | – | – | 0.291 | 0.0268 | 0.309 | – |
| CCUUUGUCAGGAUAUCAGAACGCGCUCCUAGGGAGCGCAAAUGAGAAGGGACAUGAGGAUCACCCAUGUAAAGA [Erditive] (puzzle: Exclusion 4) | – | – | 0.228 | 0.0489 | 0.0592 | – |
| UGUCAGAUGGUAGGAUAUCCAUAUCGCGUGUCCCUUUCCUAACAUGAGGAUCACCCAUGUCGGUGGGAGAAGGGCCGUAUGGUG [salish99_ExNG02_R04_035] (Eterna round: R96, puzzle: Exclusion NG 2) | – | – | – | – | – | 0.00949 |
| AAACGGGACUGAGGAUAUUCGUUCGAACACGAAGAAGAAGGUAGUGUCAGGGACAUGAGGAUCACCCAUGUGAACUCAGUCCCA [Erinle] (Eterna round: R96, puzzle: Exclusion NG 1) | 0.0325 | 0.0323 | – | – | – | 0.021 |
| UCGGCGCGAGGAUAUACGUUUGCUUUUUUGGGUCGUUGCGUACAUGAGGAUCACCCAUGUAGAAGGCGCGCCGC [Apr-15 SS2-25] (Eterna round: R96, puzzle: Exclusion 2) | 0.145 | 0.0318 | – | – | – | 0.0259 |
| AUGUUAUUGGAAGGAUAUAGUUUACUAUUCUAACAUGAGGAUCACCCAUGUAACCUUAUGUGUAUCUAGAAGGUCCAUAACUUA (Eterna round: R96, puzzle: Exclusion NG 2) | – | – | – | – | – | 0.0464 |
| GCCACGGGAGGAUAUCGCGGAGGCUACAUGAGGAUCACCCAUGUCUGGUCUUCGUGCUCCCGAGAAGGCCCGUCAG [Bivemaus] (puzzle: Exclusion 5) | – | – | – | 0.0132 | – | – |
| CUUGCAUUGCGAGGAUAUCCAACGUGGCUCGUGCUUACAUGAGGAUCACCCAUGUUCUACUAAAAGGAGAAGGCGCUUGGAGGA [Endixexebe] (Eterna round: R96, puzzle: Exclusion NG 2) | 0.0488 | 0.0255 | – | – | – | 0.0168 |
| AGCUGUGGCCGAGGAUAUGCUACUUCAAUAACCGAAAUAUAAUCGGACAUGAGGAUCACCCAUGUAGAGAAGGCGGUCUCAGCA [Eli eng2 - 085] (Eterna round: R96, puzzle: Exclusion NG 2) | – | – | – | – | – | 0.0103 |
| CUUAGCCUAAAAUCACGCAAGCUUUUUGCUUGUCUUAAGACAUGAGGAUCACCCAUGUCCGGGCUGAACUUAUGUAA [Laantiusan] (puzzle: Sensor v3, turn-off variant 2) | – | – | 0.0227 | 0.0309 | 0.0264 | – |
| UAUCGGGACUGAGGAUAUUCGUUCGAGCACGAAGAAGAAGGUAGUGUCAGGGACAUGAGGAUCACCCAUGUGAUCUCAGUCUUA [JL ViennaUCT Erinle mod 8] (Eterna round: R96, puzzle: Exclusion NG 1) | 0.127 | 0.0989 | – | – | – | 0.0867 |
| GUUAACGUAGGAUAUUAGUACAUGAACAUGAGGAUCACCCAUGUGAGGUGGGUCUUAGAUUAAGAAGGGCGAAGAA [EX5 #30] (Eterna round: R97, puzzle: Exclusion 5) | 0.525 | 0.867 | – | – | – | – |
| AGUUGGCGAGGAUAUACAUGAGGAUCACCCAUGUGAAAUUAAAGUGAGGAAAUGAAAAGUAGAAGGCGCUGACA [Mat - Exclusion 3 - Mod of Salish D56] (puzzle: Exclusion 3) | – | – | 0.277 | 0.0317 | 0.0467 | – |
| AGAUAGUGCGGAGGAUAUCUUAAUAGAAAGAAUAGAGAAGGCUGACAUGAGGAUCACCCAUGUGAGGUCUUGAGACUACAUGGU [Prohibition 35 - Jieux - Exclusion NG 1] (Eterna round: R96, puzzle: Exclusion NG 1) | 0.0663 | 0.0182 | – | – | – | 0.0129 |
| GGUACUAACACGAAAGUGUUAGUACAAUAAGCUUGUGAAACAUGAGGAUCACCCAUGUCCUCAUAAGCUCGUCUUAA [salish99_TOv2_r3_004] (puzzle: Sensor v3, turn-off variant 2) | – | – | 0.0144 | 0.238 | 0.0133 | – |
